Experimental data taken from the DeepSol protein solubility set.

Test: soluble on expression in E. coli; label from the status in PepcDB or PDB records

Sequence	soluble on expression in E. coli
MSEPFSVPVTVRGYETDTQGHLNQSVYLNYAEHARWSLLQAAGIRQADLVARGVGPVALETTIRFQRELLAGDEVTVTCAFEWGTGKTFRIRQLVTKADGTVAAEIEAVGGLMDLGERRLVPDPRQRFKELAARPELFGLLEHHHHHH	not soluble
MSLMKQIKHFNQNYQELRQLGKVAIGRRAGKLKAGTIILFAVDSQGKILAARKMQGVTVLAKFHPLPQYVNEDIHYMDHYHPLVQKENKLTQQAMENAREIYLRVELGNYQETQPLTPLNGAKIQWQLWKNKVQTKLKGSVEEGHHHHHH	not soluble
MTEQPAVAAPYDVLFEPVQIGPFTTKNRFYQVPHCNGMGYRDPSAQASMRKIKAEGGWSAVCTEQVEIHATSDIAPFIELRIWDDQDLPALKRIADAIHEGGGLAGIELAHNGMNAPNQLSRETPLGPGHLPVAPDTIAPIQARAMTKQDIDDLRRWHRNAVRRSIEAGYDIVYVYGAHGYSGVHHFLSKRYNQRTDEYGGSLENRMRLLRELLEDTLDECAGRAAVACRITVEEEIDGGITREDIEGVLRELGELPDLWDFAMGSWEGDSVTSRFAPEGRQEEFVAGLKKLTTKPVVGVGRFTSPDAMVRQIKAGILDLIGAARPSIADPFLPNKIRDGRLNLIRECIGCNICVSGDLTMSPIRCTQNPSMGEEWRRGWHPERIRAKESDARVLVVGAGPSGLEAARALGVRGYDVVLAEAGRDLGGRVTQESALPGLSAWGRVKEYREAVLAELPNVEIYRESPMTGDDIVEFGFEHVITATGATWRTDGVARFHTTALPIAEGMQVLGPDDLFAGRLPDGKKVVVYDDDHYYLGGVVAELLAQKGYEVSIVTPGAQVSSWTNNTFEVNRIQRRLIENGVARVTDHAVVAVGAGGVTVRDTYASIERELECDAVVMVTARLPREELYLDLVARRDAGEIASVRGIGDAWAPGTIAAAVWSGRRAAEEFDAVLPSNDEVPFRREVTQLA	soluble
AWVDQTPRSVTKETGESLTINCALKNAADDLERTDWYRTTLGSTNEQKISIGGRYVETVNKGSKSFSLRIRDLRVEDSGTYKCGAYFSDAMSNYSYPIPGEKGAGTVLTVKAA	soluble
MNMTKNTMGTKLPRKLEQKMAVVGEQIKLARLRRNLSVAQVAERATCSPLTVSRIEKGAPTVAIGIYLRVLYALQLDDDILWLAKEDKLGKTLQDLSLKTRERASKKE	not soluble
MSLHEMSFAEAIIRNVLRFAEEKQAKTVTSVRVRVGELLLINPEQLQFCFSVASKGTIAEGAKLEISVERADIRCLLCGRELSKDEMLCECGGFAQVKGGKDFILESVVVEVEGHHHHHH	soluble
DQVLKGAALVGHNVLVPSAQVAIDATGSAKGVVAATSAGFVNFEITDANGTFVKQLSVPASAAGEVSFAWDGTDANGNRMAAGKYGITATQTDTAGAKSKLATYVDAPVDSVTIGSDGLYLNLTGLGTSPLANVLRVS	soluble
MEGMDPLAVLAESRLLPLLTVRGGEDLLGLARVLEEEGVGALEITLRTEKGLEALKALRKSGLLLGAGTVRSPKEAEAALEAGAAFLVSPGLLEEVAALAQARGVPYLPGVLTPTEVERALALGLSALKFFPAEPFQGVRVLRAYAEVFPEVRFLPTGGIKEEHLPHYAALPNLLAVGGSWLLQGNLEAVRAKVRAAKALLSPQAPG	soluble
MSLAERKPIESWLTDMDGVLIHEGVPIPGADAFIKKLRESGKPFLVLTNNSIYTPRDLHARLRRMGLDVPVENIWTSALATAQFLGDQRPDGTAYVIGEAGLTTALHDIGYVLTDHEPDYVVLGETRTYSFEAMTQAVRLINKGARFICTNPDETGPSAEGPLPATGAVAALITKATGKKPYFAGKPNPLMMRTGLNTLGAHSETSAMIGDRMDTDVLAGMEAGMQTFLVLTGLTGPDQVENYPYRPSKVVDSIADLVDWIEGHHHHHH	soluble
GPGSMAALAALEKEVADLKRVRVFNETVRTGVERVLASLPSPENEKDTSTKVRILLLRSQATLLLPRVSREAEKDLNAALKLQPGSATTWVELSECLLRRNAFKEACDALDNALRVNPAHTEALCKYSQIQRNRCGGEGVTADQRKAYLEDAVAKARAAVGSNVDDADAWNTLALSLLSKVTLEGMTFDGVRKALAAMQQAERKCPEDPDVPYNKAVLESLLGHFGAAAMDYWRAHALDKDRLKGTRHLSEENAKVLLRAQSRMRTSSGIGKRDFQRICTRIEQAHKKYTQSTSAKVVGVLDIVTEPTMQPVTLLVSDGKGDFVLLLLHEVRPTCFKIGDVIAYPVTTPVETITHNIVACPGVEEEPLKLTLSHAYPNPKSILVNGQPLPSSAHVPLQMSSRLFA	soluble
GPLGSPLIGEIGPETYSDYMSAGIPLAYIFAETAEERKELSDKLKPIAEAQRGVINFGTIDAKAFGAHAGNLNLKTDKFPAFAIQEVAKNQKFPFDQEKEITFEAIKAFVDDFVAGKIEPSIKSEPIPEKQEG	soluble
MSLGEWKDELIHNADKFDFPIFTPYYELTDEQRRTLWEGNQYFHGINDFFKMLEENQYKIQYRVMLARYRGKTICPKCHGTRLKPEAGYVRVDGKSISELVDLPITELKEFFDHLNLNEHDSNVARRILIEINSRIRFLIDVGLGYLTLNRLSNSLSGGESQRINLATSLGSSLVGSLYILDEPSIGLHSRDTDRLIRVLRQLQELGNTVVVVEHDEEIIRAADYIIDIGPNAGRLGGEVVYQGDMKDLKKGSNSHTVRYLLGEEEIPVPEHRRPWNNYIELTGARENNLKGVNVKFPLNVMTVVTGVSGSGKSTLVRDIFYRALKRELDECSDRPGEFSSISGSLRDLRNIEFVDQNPIGKSSRSNPVTYIKAYDEIRKLWAEQPLAKQMGYTAGHFSFNSEGGRCEECKGEGTITVEMQFMADLVLECESCHGKRFKADTLEVKFQDKNIYDVLEMTVNQAVEFFTEHGQKKIVKRLLPLQDVGLGYIKLGQSSSTLSGGENQRVKLAFYLSQEKADPTLFIFDEPTTGLHFHDIRKLLDAFDALIRRGHSIVIIEHNMDVIKCADYVIDLGPEGGDKGGNIVAVGTPEEVAACGASYTGQFLKEKLAEGHHHHHH	not soluble
MTRLAVEAAEQARLAAEVEAQRIAAETAEHARVVAEAEAKRVADEQALFAAEAEAHRITAEAAEQARMEAEAQAQRDADEHARVTAEAQALEAGKTLRLPEAGTPQLGAVAGVISVTAGSGLFLDATIQAAIEILAALVGTAVSSTTAVGIGTLLYSPSLGNGELPGRMLDLPARVLMPDLPDALNDVAATGGTVDMPYRIYGDQSKYSVVATQPEGGFSPKVPVRALILDPVANAYTFTTSDTPPITLTFPIAAPENSSTTTVAQPIETPAYTGITLEPIEVKAEPLPATSPLDIRDAIYVYPVNSGLPPVYVVFSSPYEGATTKGEHSGRMYDPDNAGGPTQNLDWTTASVTQNGIDLVKLHTGRFEPSDANAVMIDRLEKILRSELSMTDTDKRFYTHELRELERYRALGVADGVEGEVWNNAHTATLEDYKLKDSSESFYTPEAITAENKQVYGELEHHHHHH	not soluble
GPGSMEGPFLSRSIQYVERWLAEIVATKGTRAAATGSSEKAVAQKRGKATATAAAETGATSMSKCRFVVGRVNSVRPHPESQKLYIEEIDLGEEGGKCRTILSGLQEYVKQEDFLNRLVLVIANLEPRKIGGIPSEGMVLCASCNDEGSRSVVLLDVPEGTPVGERILFEGHEGPYEPVLKKKLAKHFEEVAAELRTNDKGEVVWRDMPFRTSCGIITASIPNGSVS	not soluble
MAHHHHHHMAERSSTLVINEAKTKNRLSDSLRSPTDRTREHLISHRNFSSVLESAADCTSASSTPDLQEEEDVQHKRALDLFSATPHSGEFSPLIEWLLRRGERGDVGAPTASQKDGDEYTQASFFNEDYIMNLCAAATAVLGKEPALLDLEVVAHDTLVVVGDIHGQFQDLYTSVLCQQYDRRRCNPEGRDCRFLFMGDYVDRGPHSLEVVLLLLALKVEYPTLVYLTRGNHEEEKTSRVYGFLTEATSSLGAAAGTAVWSAVNKVFLDLPLAAIVQTLYMRFFVTHGGLSPGLQNVEVICALERHNYSCGNITAAEDDLIAGLLWSDPTNEVAMYKRNPRGCGFLFGPSASNRFCADNNFDFICRAHQVAMEGYMWTHNDRVLTVFSAPNYCGVNRNKGAVLLIKGYSRRPIVQQYDSAEKSEAAPARKTDFAFADMFA	not soluble
